Biological target: T1, human KPNA7 (karyopherin subunit α7), WT, purified, GST cleaved (human, UniProt A9QM74 1-516)
T1 construct: karyopherin subunit α7 (importin α8), human; also called hKPNA7; importin α8; source: E. coli BL21 (DE3) plysS, purified (glutathione Sepharose, GST tag cut with PreScission protease)
Test: pull-down; GST-SV40TNLS-GFP or GST-RSL1D1-GFP held on GST beads (4°C, 1 h, transport buffer with 0.1% Triton X-100), then cleaved WT or mutant KPNA7 at 4°C for 2 h; Western blotting
Conditions: both partners purified

T1 sequence (A9QM74 whole entry): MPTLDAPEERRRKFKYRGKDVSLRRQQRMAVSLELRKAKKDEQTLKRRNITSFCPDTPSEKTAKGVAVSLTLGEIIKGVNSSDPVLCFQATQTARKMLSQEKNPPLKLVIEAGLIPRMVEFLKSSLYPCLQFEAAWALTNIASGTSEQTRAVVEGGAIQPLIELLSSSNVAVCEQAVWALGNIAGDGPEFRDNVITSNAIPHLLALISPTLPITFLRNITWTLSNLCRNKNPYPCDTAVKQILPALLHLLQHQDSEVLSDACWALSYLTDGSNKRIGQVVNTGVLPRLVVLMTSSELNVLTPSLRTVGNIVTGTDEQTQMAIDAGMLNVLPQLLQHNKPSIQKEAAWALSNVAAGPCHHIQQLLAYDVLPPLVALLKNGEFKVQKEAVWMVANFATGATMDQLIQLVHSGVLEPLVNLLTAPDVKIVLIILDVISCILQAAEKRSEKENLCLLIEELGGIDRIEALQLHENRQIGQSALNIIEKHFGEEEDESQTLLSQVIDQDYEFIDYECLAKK

B1: GST-SV40TNLS-GFP (other)
chain: PKKKRKV
notes: nuclear localization signal of the SV40 large T antigen (SV40TNLS), between GST and GFP; source: E. coli BL21 (DE3) plysS, purified (glutathione Sepharose); not shown: GST, N-terminal, kept; GFP, C-terminal, kept
binding result: binds

Source: article PMC9843055, “Karyopherin α deficiency contributes to human preimplantation embryo arrest” (The Journal of Clinical Investigation, 2023)
